Results on 21 molecules are retold here after US20050215503, “HIF oligonucleotide decoy molecules” (published 2005).

The target in the series is HIF-1 (HIF-1alpha/HIF-1beta (ARNT) heterodimer) (Homo sapiens?, UniProt Q16665;P27540 Q16665:1-826,P27540:2-789). The series is described as follows: competition; TransAM. To be noted: protein: extract; tags: none (endogenous, nuclear extract). On the procedure: To assess the relative affinities of oligonucleotides for a HIF-1α containing complex, the HIF-1 TransAM assay (Active Motif, Catalog # 47096) was utilized. The assay was performed according to manufacturer's instructions. Briefly, a double-stranded oligonucletide containing the hypoxia response element (HRE) was immobilized on a 96-well plate. A nuclear extract containing HIF-1α complexes was incubated and allowed to bind to the immobilized oligonucleotide. The unbound material was washed away and the bound HIF-1α detected using an antibody that specificially recognizes HIF-1α. The anti-HIF-1α antibody was detected by a secondary antibody labeled with horseradish peroxidase (HRP), and the amount of HRP in each well was measured using a calorimetric substrate reaction and read using a microplate spectrophotometer.
Sequence of HIF-1 (HIF-1alpha/HIF-1beta (ARNT) heterodimer) (Q16665 whole entry, chain 1 of 2): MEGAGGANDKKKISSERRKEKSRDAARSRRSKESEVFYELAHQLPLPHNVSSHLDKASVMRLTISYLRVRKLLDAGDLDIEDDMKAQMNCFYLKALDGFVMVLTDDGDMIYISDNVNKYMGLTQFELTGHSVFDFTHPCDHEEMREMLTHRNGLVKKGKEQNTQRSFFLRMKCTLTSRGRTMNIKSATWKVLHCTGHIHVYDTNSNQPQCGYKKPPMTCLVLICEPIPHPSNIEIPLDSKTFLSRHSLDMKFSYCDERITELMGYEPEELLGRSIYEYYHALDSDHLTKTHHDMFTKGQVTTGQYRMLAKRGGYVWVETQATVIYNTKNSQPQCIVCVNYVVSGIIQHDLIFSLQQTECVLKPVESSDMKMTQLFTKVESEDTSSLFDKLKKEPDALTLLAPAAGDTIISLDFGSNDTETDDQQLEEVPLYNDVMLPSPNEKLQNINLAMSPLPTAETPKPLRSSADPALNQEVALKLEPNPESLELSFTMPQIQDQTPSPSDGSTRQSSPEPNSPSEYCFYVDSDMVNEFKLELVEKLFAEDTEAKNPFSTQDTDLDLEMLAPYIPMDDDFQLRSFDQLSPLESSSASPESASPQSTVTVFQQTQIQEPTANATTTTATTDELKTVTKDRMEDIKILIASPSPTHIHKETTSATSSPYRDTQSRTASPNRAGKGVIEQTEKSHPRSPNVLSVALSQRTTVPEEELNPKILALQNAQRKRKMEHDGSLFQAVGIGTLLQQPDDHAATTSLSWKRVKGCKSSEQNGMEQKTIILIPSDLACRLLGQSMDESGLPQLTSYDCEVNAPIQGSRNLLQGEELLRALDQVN
Sequence of HIF-1 (HIF-1alpha/HIF-1beta (ARNT) heterodimer) (P27540 2-789, chain 2 of 2): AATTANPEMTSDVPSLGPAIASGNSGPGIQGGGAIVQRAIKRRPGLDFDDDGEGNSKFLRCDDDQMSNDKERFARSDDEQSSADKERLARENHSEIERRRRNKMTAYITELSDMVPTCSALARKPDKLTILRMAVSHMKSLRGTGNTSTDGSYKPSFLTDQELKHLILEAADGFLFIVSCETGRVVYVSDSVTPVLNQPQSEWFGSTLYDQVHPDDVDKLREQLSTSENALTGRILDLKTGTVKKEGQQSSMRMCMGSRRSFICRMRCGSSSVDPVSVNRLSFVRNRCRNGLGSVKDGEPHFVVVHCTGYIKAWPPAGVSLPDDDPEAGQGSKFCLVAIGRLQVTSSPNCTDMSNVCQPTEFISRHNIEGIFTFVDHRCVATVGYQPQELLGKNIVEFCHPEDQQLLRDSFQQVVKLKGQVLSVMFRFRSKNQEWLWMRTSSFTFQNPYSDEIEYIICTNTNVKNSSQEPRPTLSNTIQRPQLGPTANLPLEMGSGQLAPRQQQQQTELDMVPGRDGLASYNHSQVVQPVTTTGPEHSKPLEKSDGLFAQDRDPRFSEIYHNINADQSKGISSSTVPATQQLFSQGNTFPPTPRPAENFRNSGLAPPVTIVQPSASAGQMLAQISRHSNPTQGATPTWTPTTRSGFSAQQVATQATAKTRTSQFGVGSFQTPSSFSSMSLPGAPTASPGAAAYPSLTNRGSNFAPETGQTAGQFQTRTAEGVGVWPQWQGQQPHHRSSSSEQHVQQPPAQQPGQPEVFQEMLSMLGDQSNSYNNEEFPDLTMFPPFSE
The ability of candidate decoy molecules to compete for binding of HIF-1α to the HRE element-immobilized on the plate were measured and compared to reveal relative binding affinities. Candidate decoys were added in increasing molar ratios (relative to the amount of oligo immobilized on the plate) to compete for binding to the HIF-1α containing complexes. The amounts of decoys added to the assay included 0.625, 1.25, 2.5, 5, 10 and 20 fold molar excess. A well containing a competing decoy able to bind HIF-1α with high affinity would give a lower absorbance reading as compared to a decoy with low affinity for HIF-1α. All potential decoys were then compared and ranked in order to assess their relative binding affinities.
The screen was conducted using different decoy concentrations. For each UV absorbance reading, normalization was done by calculating the ratio of absorbance readings of sample vs. wild type control. The bigger ratio represents less competition of binding with HIF-1α when compared with wild-type control. The smaller (smaller than 1.0 or close to 1.0) ratios represent better binding or better competition.

B1: decoy 985 (dsDNA)
DNA 1: CCAGCGTACGTGACTCAGG
DNA 2: CCTGAGTCACGTACGCTGG
As for B1, the binding signal was 0.91 ratio.

B2: decoy 849/850 (dsDNA)
DNA 1: GCCTACACGTGGGTTCCC
DNA 2: GGGAACCCACGTGTAGGC
On to B2, for which the binding signal came to 2.66 ratio.

B3: decoy 823/824 (dsDNA)
DNA 1: TGCATACGTGGGCTCCAACAG
DNA 2: CTGTTGGAGCCCACGTATGCA
In the case of B3, the binding signal was 4.4 ratio.

B4: decoy 935 (dsDNA)
DNA 1: CCAGCGTAAGTGCCTCAGG
DNA 2: CCTGAGGCACTTACGCTGG
As for B4, the binding signal was found to be 2.43 ratio.

B5: decoy 851/852 (dsDNA)
DNA 1: CGGAGTACGTGACGGAGC
DNA 2: GCTCCGTCACGTACTCCG
Consider B5, for which the binding signal was 1.41 ratio.

B6: decoy 843/844 (dsDNA)
DNA 1: GTGCATACGTGGGCTCCA
DNA 2: TGGAGCCCACGTATGCAC
Regarding B6, the binding signal came out at 1.7 ratio.

B7: decoy 999 (dsDNA)
DNA 1: CCATGGCACGTGCCTCAGG
DNA 2: CCTGAGGCACGTGCCATGG
In the case of B7, the binding signal worked out at 1.3 ratio.

B8: decoy 969 (dsDNA)
DNA 1: CCAGGGTACGTGCCTCAGG
DNA 2: CCTGAGGCACGTACCCTGG
In turn, B8 had a binding signal of 1.67 ratio.

B9: decoy 983 (dsDNA)
DNA 1: CCAGCGTACGTGTCTCAGG
DNA 2: CCTGAGACACGTACGCTGG
B9 came in with a binding signal of 1.3 ratio.

B10: decoy 845/846 (dsDNA)
DNA 1: GAGCGTACGTGCCTCAGG
DNA 2: CCTGAGGCACGTACGCTC
The molecule B10 had a binding signal of 1.59 ratio.

B11: decoy 861/862 (dsDNA)
DNA 1: CTAATACGTGCCGCTG
DNA 2: CAGCGGCACGTATTAG
Take B11: the binding signal turned out to be 2.18 ratio.

B12: decoy 971 (dsDNA)
DNA 1: CCAGTGTACGTGCCTCAGG
DNA 2: CCTGAGGCACGTACACTGG
Molecule B12 came in with a binding signal of 1.05 ratio.

B13: decoy 973 (dsDNA)
DNA 1: CCAGAGTACGTGCCTCAGG
DNA 2: CCTGAGGCACGTACTCTGG
B13 registered a binding signal of 1.34 ratio.

B14: decoy 997 (dsDNA)
DNA 1: CCGGGGCACGTGCCCCAGG
DNA 2: CCTGGGGCACGTGCCCCGG
The molecule B14 showed a binding signal of 1.28 ratio.

B15: decoy 809/810 (dsDNA)
DNA 1: AGGGCCGGACGTGGGGCCCC
DNA 2: GGGGCCCCACGTCCGGCCCT
Regarding B15, the binding signal stood at 4.57 ratio.

B16: decoy 933 (dsDNA)
DNA 1: CCAGCGTATGTGCCTCAGG
DNA 2: CCTGAGGCACATACGCTGG
In the case of B16, the binding signal is 3.47 ratio.

B17: decoy 981 (dsDNA)
DNA 1: CCAGCGTACGTGGCTCAGG
DNA 2: CCTGAGCCACGTACGCTGG
In turn, B17 had a binding signal of 1.7 ratio.

B18: decoy 817/818 (dsDNA)
DNA 1: CTGCCGACGTGCGCTCCGGAG
DNA 2: CTCCGGAGCGCACGTCGGCAG
Regarding B18, the binding signal turned out to be 4.81 ratio.

B19: decoy 901 (dsDNA)
DNA 1: CACGTGCATACGTGGGCTCCA
DNA 2: TGGAGCCCACGTATGCACGTG
As for B19, the binding signal is 1.6 ratio.

B20: decoy 937 (dsDNA)
DNA 1: CCAGCGTAGGTGCCTCAGG
DNA 2: CCTGAGGCACCTACGCTGG
As for B20, the binding signal is 2.49 ratio.

B21: decoy 991 (dsDNA)
DNA 1: CCAGCGTACGTGCATCAGG
DNA 2: CCTGATGCACGTACGCTGG
Molecule B21 showed a binding signal of 1.02 ratio.
